# Test system: S-adenosylmethionine synthetase
# Experiment: S-adenosylmethionine synthetase (MAT) activity in vitro in crude extracts, FIA-MS/MS
# Type: biochemical, E. coli
# Conditions: 10 mM methionine, 10 mM ATP, 37° C., 30 minutes
molecule,measurement,value
"MetK* S273F (protein, UniProt P0A817 2-384, looked up, variant S273F) S-adenosylmethionine synthase: AKHLFTSESVSEGHPDKIADQISDAVLDAILEQDPKARVACETYVKTGMVLVGGEITTSAWVDIEEITRNTVREIGYVHSDMGFDANSCAVLSAIGKQSPDINQGVDRADPLEQGAGDQGLMFGYATNETDVLMPAPITYAHRLVQRQAEVRKNGTLPWLRPDAKSQVTFQYDDGKIVGIDAVVLSTQHSEEIDQKSLQEAVMEEIIKPILPAEWLTSATKFFINPTGRFVIGGPMGDCGLTGRKIIVDTYGGMARHGGGAFSGKDPSKVDRFAAYAARYVAKNIVAAGLADRCEIQVSYAIGVAEPTSIMVETFGTEKVPSEQLTLLVREFFDLRPYGLIQMLDLLHPIYKETAAYGHFGREHFPWEKTDKAQLLRDAAGLK",MAT (S-adenosylmethionine synthetase activity),2.2 mUI/mg prot
